Test system: human colon cancer cell line LS174T
Settings: mouse, in vivo

With “Rtx-TCO: TCO-modified rituximab for control in vivo experiments; lacks specificity for TAG72” the “tumor-to-blood ratio (T/B)” value was 0.6±0.0 and the “tumor-to-muscle ratio (T/M)” value was 4.9±0.8.

Source: patent US20120039803A1, “PRETARGETING KIT, METHOD AND AGENTS USED THEREIN” (KONINKLIJKE PHILIPS ELECTRONICS N.V., priority 2009, published 2012)
